The values that follow come from US12091454B2, “Humanized anti-human neurotensin receptor 1 antibodies and their uses” (DEVELOPMENT CENTER FOR BIOTECHNOLOGY, priority 2022, dated 2024).

For data set [1], the system named is NTSR1 expressing cells, FaDu. The experiment in a line: Cell-binding assay by FACS. Also noted: species or system human. How it is done: Anti-NTSR1 antibodies were used to detect cells that express NTSR1 on the cell surfaces, for example using FACS. NTSR1 expressing cells, FaDu, were harvested and re-suspended in 5% PBS/FBS buffer. The cells (1×10^5) were incubated with anti-NTSR1 antibody (1-10 μg/ml) or negative control, at 4° C. for 1 hr, and then stained with goat anti-human IgG FITC conjugate ( 1/1000) at 4° C. for 1 hr. For each assay, two additional controls were prepared; one without primary antibody and the other one with absence of any antibody. All treated samples were analyzed with FACSVERSE™ (BECTON DICKINSON®) and the results were processed by FACSUITE™ software (BECTON DICKINSON®).

The test system of data set [2] is NTSR1 linear L2-biotin protein. The data set is described as follows: Binding affinity of the humanized antibodies by ELISA. Set-up: species or system human. Particulars: for binding signal for NTSR1 in binding ELISA: FIG. 4; for Kd: binding ELISA, non-linear regression. How it is done: ELISA plates were coated with 1-2 μg/100 μL per well of NTSR1 linear L2-biotin protein. Wells were rinsed for 3 times with PBS and blocked with 300 μL of 5% MPBS per well for 2 hr at 37° C. After washing with PBS, wells were incubated with serial diluted NTSR1 antibodies in 5% MPBS for 1.5 hours at 37° C. The plates were washed and goat polyclonal anti-human IgG-HRP antibody (1:10,000) (JACKSON IMMUNORESEARCH®) was added into each well. The OD at 650 nm and at 450 nm was read. Readings were obtained by subtracting OD650 from OD450 and the binding affinities of antibodies were calculated by non-linear regression with Prism software (GRAPHPAD®).
For orientation: In an ELISA, binding on a coated surface is turned into a signal by an enzyme label.

Data set [3] in a line: In vivo pharmacokinetic analysis (MSD ECL total antibody assay). Particulars: BALB/c mice, 5 mg/kg via the tail vein. An excerpt: This Example used Meso Scale Discovery (MSD) Electrochemiluminescent (ECL) method to conduct the PK analysis of the anti-NTSR1 antibodies αNTSR1 (AKT2), αNTSR1 (AKT2 Hu/Hu) and αNTSR1 (AKT2 Hu/Hd) in BALB/c mice samples. The MSD assay can measure both conjugated and unconjugated antibodies. As illustrated in this example, for total antibody assay (including conjugated and unconjugated antibodies), the plate is coated with goat anti-human IgG, which can capture all humanized antibodies (conjugated and unconjugated).
The mice were administered at a dose level of 5 mg/kg via the tail vein. Blood samples were then obtained at different time points for determining the concentrations of αNTSR1 (AKT2), αNTSR1 (AKT2 Hu/Hu) and αNTSR1 (AKT2 Hu/Hd) in mice by MESO QuickPlex SQ 120 method. The PK parameters of αNTSR1 (AKT2), αNTSR1 (AKT2 Hu/Hu) and αNTSR1 (AKT2 Hu/Hd) were analyzed by noncompartmental analysis using PHOENIX™ for WinNonlin Program, version 6.3.

Data set [4] concerns FaDu human head and neck cancer xenograft. The experiment in a line: Xenograft model of anti-NTSR1 ADCs (head and neck cancer). The data set is classed as in vivo, male NOD SCID mice. Conditions: 5 mpk, IV, BIW × 3. How it is done:
The aim of this study was to evaluate the in vivo anti-tumor efficacy of αNTSR1 (AKT2) 4seco-DUBA, αNTSR1 (AKT2 Hu/Hu) 4seco-DUBA, and αNTSR1 (AKT2 Hu/Hd) 4seco-DUBA in FaDu human head and neck cancer xenograft model in male NOD SCID mice.
Formulations respectively comprising test article αNTSR1 (AKT2) 4seco-DUBA, test article αNTSR1 (AKT2 Hu/Hu) 4seco-DUBA, test article αNTSR1 (AKT2 Hu/Hd) 4seco-DUBA, and Hu IgG were formulated by diluting the stock with a 25 mM sodium citrate buffer (pH 6.5). […]
The FaDu cells were maintained in vitro as a monolayer culture in RPMI-1640 medium supplemented with 10% fetal bovine serum at 37° C. in an atmosphere of 5% CO2 in air. The tumor cells were routinely sub-cultured twice weekly by trypsin-EDTA treatment. The cells growing in an exponential growth phase were harvested and counted for tumor inoculation.
Male NOD SCID mice at age of 6-7 weeks were quarantined for one week. Five mice were housed in each cage. All animals were hosted in the animal facility with a 12-h light/12-h dark cycle at 19-25° C. Animals had free access to rodent pellet foods and water ad libitum.
FaDu cells were subcutaneously (SC) implanted (4×10^6 cells in 1:1 PBS/matrigel mixture at 0.1 mL per mouse) into the right flank of male NOD SCID mice. When the average tumor volume had reached about 200 mm^3, the mice were randomly divided into 7 groups (N=6 per group). Each of Hu IgG, αNTSR1 (AKT2) 4seco-DUBA (5 mg/kg), αNTSR1 (AKT2 Hu/Hu) 4seco-DUBA (5 mg/kg), and αNTSR1 (AKT2 Hu/Hd) 4seco-DUBA (5 mg/kg) was intravenously administered twice weekly for 3 weeks.
The tumor volumes, body weights, mortality, and signs of overt toxicity were monitored and recorded three times weekly for 28 days. Tumor volumes (mm^3) were measured three times per week using calipers and calculated according to the formula: Tumor Volume=(w^2×l)/2, where w=width and l=length in diameter (mm) of the tumor. The percentages of tumor growth inhibition (TGI) were calculated using the following formula: % TGI=[1−(T/C)]×100%, where T and C represent the mean tumor volumes of the treatment group and the control group, respectively. A TGI (%) value≥58% was considered as indicating significant anti-tumor activity. Animals were weighed three times weekly until the completion of the study.

In the next data set the target is NTSR1 protein (Homo sapiens, UniProt P30989). The experiment in a line: SPR (BIACORE T200) multi-cycle kinetic assay. Conditions: 25° C., one-to-one Langmuir binding model. How it is done: To know the binding kinetics differences among individual anti-NTSR1 antibodies, surface plasmon resonance (SPR) measurement with BIACORE™ T200 (CYTIVA® Inc.) was used as previously described (Karlsson & Falt, (1997) J. Immunol Methods 200:121-133). Carboxymethylated dextran biosensor chips (CM5, CYTIVA® Inc.) were activated with N-ethyl-N′-(3-dimethylaminopropyl)-carbodiimide hydrochloride (EDC) and N-hydroxysuccinimide (NHS) according to the supplier's instructions. NTSR1 protein was diluted with 10 mM sodium acetate, pH 4.0, into 5 μg/ml before injection at a flow rate of 10 μL/minute to achieve approximately 1500 response units (RU) of coupled protein followed by the injection of 1 M ethanolamine to block unreacted groups. For kinetics measurements, two-fold serial dilutions of anti-NTSR1 mAb (0.3125 nM to 40 nM) were injected in HBS-EP+BIACORET™ running buffer provided by the manufacturer (CYTIVA® Inc.) at 25° C. at a flow rate of 30 μL/min, and binding responses on the NTSR1 protein were corrected by subtraction of responses on a blank flow cell. Association rates (kon or Ka) and dissociation rates (koff or Kd) were calculated using a simple one-to-one Langmuir binding model with separate fittings of kon and koff. (CYTIVA® BIACORET™ Insight Evaluation Software).
Sequence of NTSR1 protein (P30989 whole entry): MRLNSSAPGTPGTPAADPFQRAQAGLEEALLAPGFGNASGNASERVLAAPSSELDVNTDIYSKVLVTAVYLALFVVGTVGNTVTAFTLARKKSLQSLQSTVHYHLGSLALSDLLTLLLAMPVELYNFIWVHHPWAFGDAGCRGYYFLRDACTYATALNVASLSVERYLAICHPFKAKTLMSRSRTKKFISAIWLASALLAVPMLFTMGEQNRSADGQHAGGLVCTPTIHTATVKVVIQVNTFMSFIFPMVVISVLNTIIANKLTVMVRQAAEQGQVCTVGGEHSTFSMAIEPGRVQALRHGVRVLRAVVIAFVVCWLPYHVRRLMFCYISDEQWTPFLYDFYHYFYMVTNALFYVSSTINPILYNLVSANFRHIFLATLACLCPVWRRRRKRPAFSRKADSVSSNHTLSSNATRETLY
On the technique in general: SPR reads the build-up and loss of mass on a sensor chip optically.

Positions count from the first letter of the chain named. Several values for one entry are separate records, joined by “and”; a condition that tells them apart may be missing. Equal entries are not always repeated.

B1: 7C3 HuHu: humanized anti-NTSR1 antibody, 7C3 HuVH (SEQ ID NO: 13) and 7C3 HuVL (SEQ ID NO: 14) (antibody, V domains shown)
VH: QVQLVQSGAEVKKPGASVKVSCKASGYTFTSSWIHWVRQAPGQGLEWMGQIRPNSGNTYYNEKFKVRVTMTRDTSTSTVYMELSSLRSEDTAVYYCARYYYGFDYWGQGTLVTVSS
VL: DIVMTQTPLSLSVTPGQPASISCRSSQSIVHSNGNTYLEWYLQKPGQSPQLLIYKVSNRFSGVPDRFSGSGSGTDFTLKISRVEAEDVGVYYCFQGSHLPWTFGQGTKVEIK
For the molecule B1, in data set [1] (concentration of 1 μg/mL), the “binding to FaDu cells” value is recorded as “do not bind well”. Besides, in data set [1] (concentration of 10 μg/mL), the “binding to FaDu cells” value is given as “do not bind significantly”. In addition, in data set [2], the “binding signal for NTSR1 in binding ELISA” value (“binding signal for NTSR1” for short) is on record as “good binding signal” and binding was characterised by a dissociation constant (Kd) of 0.294 nM.

B2: 7C3 HdHd: humanized anti-NTSR1 antibody, 7C3 HdVH (SEQ ID NO: 11) and 7C3 HdVL (SEQ ID NO: 12) (antibody, V domains shown)
VH: EVQLVESGGGLVQPGGSLRLSCAASGYTFTSSWIHWVRQAPGKGLEWVAQIRPNSGNTYYNEKFKVRFTISRDDSKNTLYLQMNSLRAEDTAVYYCARYYYGFDYWGQGTLVTVSS
VL: DIQMTQSPSSLSASVGDRVTITCRSSQSIVHSNGNTYLEWYQQKPGKAPKLLIYKVSNRFSGVPSRFSGSGSGTDFTLTISSLQPEDFATYYCFQGSHLPWTFGQGTKVEIK
With B2, the “binding signal for NTSR1” value in data set [2] was “much lower binding signals”.

B3: 7C3 HuHd: humanized anti-NTSR1 antibody, 7C3 HuVH paired with 7C3 HdVL (antibody, V domains shown)
VH: B1 VH
VL: B2 VL
With B3, the “binding to FaDu cells” value in data set [1] (concentration of 1 μg/mL) is reported as “do not bind well”; in data set [1] (concentration of 10 μg/mL), “do not bind significantly”. In addition, the “binding signal for NTSR1” value in data set [2] is recorded as “good binding signal”.

B4: 7C3 HdHu: humanized anti-NTSR1 antibody, presumably 7C3 HdVH paired with 7C3 HuVL (antibody, V domains shown)
VH: B2 VH
VL: B1 VL
With B4, in data set [2], the “binding signal for NTSR1” value is “much lower binding signals”.

B5: 7C3 MM: mouse-human chimera anti-NTSR1 antibody, m7C3 VH (SEQ ID NO: 7) and m7C3 VL (SEQ ID NO: 8) (antibody, V domains shown)
VH: QVQLQQPGSVLVRPGDSVMLSCKASGYTFTSSWIHWAKQRPGQGPEWIGQIRPNSGNTYYNEKFKVKATLTVDTSSSTAYVDLSSLTSEDSAVYYCARYYYGFDYWGQGTTVTVSS
VL: DVLMTQTPLSLPVSLGDQASISCRSSQSIVHSNGNTYLEWYLQKPGQSPKLLIYKVSNRFSGVPDRFSGSGSGTDFTLKISRVEAEDLGVYYCFQGSHLPWTFGGGTKLEIK
With B5, the “binding to FaDu cells” value in data set [1] (concentration of 1 μg/mL) was “do not bind well”; in data set [1] (concentration of 10 μg/mL) it was “do not bind significantly”. The same molecule showed an equilibrium dissociation constant (Kd) in data set [2] of 0.676 nM.

B6: AKT2: affinity-matured mouse-human chimera anti-NTSR1 antibody, AKT2 VH (SEQ ID NO: 9) and AKT2 VL (SEQ ID NO: 10) (antibody, V domains shown)
VH: B5 VH with D16A, M19K, T28A, P45L, Y100H, T111L
VL: B5 VL with S97A
In the case of B6, in data set [3] (total antibody), the MRT was determined as 89.6 ± 6.6 h, the Vss was 0.159 ± 0.010 L/kg and the t½ is given as 71.7 ± 5.1^ h. Besides, in data set [3] (listed as αNTSR1 (AKT2), 5 mg/kg), the “in vivo half live” value was 71.7 ± 5.1 h and 71 h. For the same molecule, the “TGI % (1-T/C) Day 0” value in data set [4] (Day 0) is reported as 0.0%. The “TGI % (1-T/C) Day 5” value in data set [4] (Day 5) is given as 11.1%. For the same molecule, in data set [4] (Day 7), the “TGI % (1-T/C) Day 7” value was found to be 34.8%. In addition, the “TGI % (1-T/C) Day 10” value in data set [4] (Day 10) turned out to be 31.0%. Further, the “TGI % (1-T/C) Day 12” value in data set [4] (Day 12) was 31.1%. Also, in data set [4] (Day 14), the “TGI % (1-T/C) Day 14” value worked out at 29.9%. Also, in data set [4] (Day 17), the “TGI % (1-T/C) Day 17” value worked out at 21.6%. For the same molecule, in the data set with NTSR1 protein, the “Ka (kon, association rate)” value stood at 406800 M⁻¹ s⁻¹ and the “Kd (koff, dissociation rate)” value was found to be 0.0006558 s⁻¹.

Usually Kd stands for the equilibrium constant for the complex coming apart. What is called MRT is a mean duration of stay, worked out from the concentration-time curve. For orientation: Vss means the apparent volume that relates the amount in the body to the concentration in plasma or blood. Read a high Vss as wide distribution into tissue.
